T1: His-SynGAP-EC[1186-1277] (Homo sapiens (Human), UniProt Q96PV0 956-1305)
T1 construct: Expressed in E. coli, purified on nickel resin, 15.75 kDa; also called SYNGAP1 fragment with N-terminal 6His tag
T1 sequence: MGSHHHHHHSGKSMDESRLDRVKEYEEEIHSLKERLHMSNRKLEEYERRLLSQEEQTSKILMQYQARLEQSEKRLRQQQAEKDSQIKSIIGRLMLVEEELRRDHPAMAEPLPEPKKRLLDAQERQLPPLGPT

T2: SYNGAP1-nanoluc-alfa-tag-fusion
T2 chain: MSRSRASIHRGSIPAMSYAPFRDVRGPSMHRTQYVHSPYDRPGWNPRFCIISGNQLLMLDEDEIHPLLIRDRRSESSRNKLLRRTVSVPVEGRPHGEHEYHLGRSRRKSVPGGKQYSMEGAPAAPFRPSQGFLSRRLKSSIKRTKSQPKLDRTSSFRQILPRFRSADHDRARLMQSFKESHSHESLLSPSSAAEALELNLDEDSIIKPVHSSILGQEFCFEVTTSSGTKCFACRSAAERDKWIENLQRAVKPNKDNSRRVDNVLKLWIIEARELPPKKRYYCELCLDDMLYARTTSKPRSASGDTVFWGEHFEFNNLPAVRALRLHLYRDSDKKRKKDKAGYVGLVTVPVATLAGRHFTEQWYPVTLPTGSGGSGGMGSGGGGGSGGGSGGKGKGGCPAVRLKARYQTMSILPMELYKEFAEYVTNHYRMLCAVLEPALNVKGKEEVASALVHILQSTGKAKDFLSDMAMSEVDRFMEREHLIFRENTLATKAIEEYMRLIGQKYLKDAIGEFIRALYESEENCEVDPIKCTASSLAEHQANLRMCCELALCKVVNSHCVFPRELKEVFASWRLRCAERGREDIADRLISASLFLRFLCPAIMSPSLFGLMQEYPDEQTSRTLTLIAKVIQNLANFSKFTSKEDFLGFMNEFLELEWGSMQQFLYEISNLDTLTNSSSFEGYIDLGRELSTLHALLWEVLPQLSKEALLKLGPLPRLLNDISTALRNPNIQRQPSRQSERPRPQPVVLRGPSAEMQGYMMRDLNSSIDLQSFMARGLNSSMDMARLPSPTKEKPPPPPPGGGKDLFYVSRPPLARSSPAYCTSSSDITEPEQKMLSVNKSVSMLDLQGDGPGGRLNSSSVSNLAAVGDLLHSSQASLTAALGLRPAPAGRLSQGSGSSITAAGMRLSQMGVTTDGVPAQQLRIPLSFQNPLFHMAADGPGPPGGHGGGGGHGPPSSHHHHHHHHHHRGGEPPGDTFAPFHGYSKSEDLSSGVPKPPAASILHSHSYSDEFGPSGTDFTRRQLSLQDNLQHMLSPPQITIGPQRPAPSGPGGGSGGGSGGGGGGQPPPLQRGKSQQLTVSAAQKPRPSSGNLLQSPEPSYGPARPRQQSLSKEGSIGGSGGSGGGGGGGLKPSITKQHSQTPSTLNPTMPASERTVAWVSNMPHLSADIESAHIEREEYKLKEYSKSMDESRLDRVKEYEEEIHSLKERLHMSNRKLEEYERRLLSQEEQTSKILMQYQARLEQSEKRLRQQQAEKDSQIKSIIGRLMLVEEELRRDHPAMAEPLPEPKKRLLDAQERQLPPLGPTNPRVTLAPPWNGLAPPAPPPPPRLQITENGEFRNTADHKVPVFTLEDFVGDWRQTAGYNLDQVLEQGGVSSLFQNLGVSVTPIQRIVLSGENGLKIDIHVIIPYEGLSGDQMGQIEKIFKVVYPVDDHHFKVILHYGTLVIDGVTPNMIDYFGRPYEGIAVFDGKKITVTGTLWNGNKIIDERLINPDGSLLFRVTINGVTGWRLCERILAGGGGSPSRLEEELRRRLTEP


Columns and labels:
His-SynGAP-EC[1186-1277] = target: T1, His-SynGAP-EC[1186-1277]; test: phage display panning, then polyclonal and monoclonal phage ELISA on plate-coated antigen (4 ug/ml)
Protocol: The concentration of the eluted phages was determined. First, the eluted phages were added to E. Coli TG1. TG1 was poured onto a plate and cultured upside down. The PFU was calculated based on the number of plaques (i.e. dead TG1) on the plate. The eluted phages were added to TG1 followed infection by helper phage and cultured. Phages were precipitated with PEG/NaCl and subsequently resuspended. The phages were screened using a polyclonal ELISA and a monoclonal ELISA. […] ([…]) or control buffer. The coated plate was washed, blocked, washed, and incubated with the amplified eluted phages. Subsequently the plate was washed and incubated with anti-phage-HRP antibody, washed, and incubated with TMB followed by HCL. The result readings were taken at 450 nm. The monoclonal phase ELISA was carried out according to the following. Single TG1 clones randomly selected from plates (described above) were cultured with helper phage. A total of 192 clones from round 3+96 clones from round 4+96 clones from round 5 were selected. The clones were centrifuged and the supernatant (i.e. the phages) were collected. […] The plate was washed, blocked, washed, incubated with the selected phages, washed, incubated with anti-phage-HRP antibody, washed, and incubated with TMB followed by HCL. The results were read of 450 nm.

[1] = target: T2, SYNGAP1-nanoluc-alfa-tag-fusion; test: cell-based or functional assay

| Binder | binding result (His-SynGAP-EC[1186-1277]) | increase in SYNGAP1 expression over the control [1] [fold] |
| --- | --- | --- |
| FLX00157 (VHH, Camelid VHH from a phage library; also called anti-SynGAP VHH FLX00157; VHH) VHH: QVQLVESGGGLVQAGASLRLSCAASERTFGHYAMGWFRQAPGKEREFVATISWKGGTTGYAHSVKGRFTISRDSAKNMVYLQMNSLKPEDTAVYYCAARNTMSGSMSSSAYPYWGQGTQVTVSS | binds | – |
| FLX00155 (VHH, Camelid VHH from a phage library; also called anti-SynGAP VHH FLX00155; VHH) VHH: QVQLVESGGGLVQPGGSLRLSCAASGFAFGSYDMSWVRQAPGQGPEWVSAITPGGGGTFYAYYSDSVKGRFAISRDNAKNTLTLQMNSLKPDDTAMYYCAKNFYGNGGRGHGTQVTVSS | binds | – |
| FireflyLuciferase-P2A-anti-syngap1_FLX00155-Cezanne (other) MEDAKNIKKGPAPFYPLEDGTAGEQLHKAMKRYALVPGTIAFTDAHIEVDITYAEYFEMSVRLAEAMKRYGLNTNHRIVVCSENSLQFFMPVLGALFIGVAVAPANDIYNERELLNSMGISQPTVVFVSKKGLQKILNVQKKLPIIQKIIIMDSKTDYQGFQSMYTFVTSHLPPGFNEYDFVPESFDRDKTIALIMNSSGSTGLPKGVALPHRTACVRFSHARDPIFGNQIIPDTAILSVVPFHHGFGMFTTLGYLICGFRVVLMYRFEEELFLRSLQDYKIQSALLVPTLFSFFAKSTLIDKYDLSNLHEIASGGAPLSKEVGEAVAKRFHLPGIRQGYGLTETTSAILITPEGDDKPGAVGKVVPFFEAKVVDLDTGKTLGVNQRGELCVRGPMIMSGYVNNPEATNALIDKDGWLHSGDIAYWDEDEHFFIVDRLKSLIKYKGYQVAPAELESILLQHPNIFDAGVAGLPDDDAGELPAAVVVLEHGKTMTEKEIVDYVASQVTTAKKLRGGVVFVDEVPKGLTGKLDARKIREILIKAKKGGKIAVTRLKGSGATNFSLLKQAGDVEENPGPRSGTGSSGQVQLVESGGGLVQPGGSLRLSCAASGFAFGSYDMSWVRQAPGQGPEWVSAITPGGGGTFYAYYSDSVKGRFAISRDNAKNTLTLQMNSLKPDDTAMYYCAKNFYGNGGRGHGTQVTVSSGGGGSGGGGSGGGGSGGGGSQVQLVESGGGLVQPGGSLRLSCAASGFAFGSYDMSWVRQAPGQGPEWVSAITPGGGGTFYAYYSDSVKGRFAISRDNAKNTLTLQMNSLKPDDTAMYYCAKNFYGNGGRGHGTQVTVSSGAPGSGPPSFSEGSGGSRTPEKGFSDREPTRPPRPILQRQDDIVQEKRLSRGISHASSSIVSLARSHVSSNGGGGGSNEHPLEMPICAFQLPDLTVYNEDFRSFIERDLIEQSMLVALEQAGRLNWWVSVDPTSQRLLPLATTGDGNCLLHAASLGMWGFHDRDLMLRKALYALMEKGVEKEALKRRWRWQQTQQNKESGLVYTEDEWQKEWNELIKLASSEPRMHLGTNGANCGGVESSEEPVYESLEEFHVFVLAHVLRRPIVVVADTMLRDSGGEAFAPIPFGGIYLPLEVPASQCHRSPLVLAYDQAHFSALVSMEQKENTKEQAVIPLTDSEYKLLPLHFAVDPGKGWEWGKDDSDNVRLASVILSLEVKLHLLHSYMNVKWIPLSSDAQAPLAQ | – | ≥ 2 |
| FireflyLuciferase-P2A-anti-syngap1_FLX00154-Cezanne (other) MEDAKNIKKGPAPFYPLEDGTAGEQLHKAMKRYALVPGTIAFTDAHIEVDITYAEYFEMSVRLAEAMKRYGLNTNHRIVVCSENSLQFFMPVLGALFIGVAVAPANDIYNERELLNSMGISQPTVVFVSKKGLQKILNVQKKLPIIQKIIIMDSKTDYQGFQSMYTFVTSHLPPGFNEYDFVPESFDRDKTIALIMNSSGSTGLPKGVALPHRTACVRFSHARDPIFGNQIIPDTAILSVVPFHHGFGMFTTLGYLICGFRVVLMYRFEEELFLRSLQDYKIQSALLVPTLFSFFAKSTLIDKYDLSNLHEIASGGAPLSKEVGEAVAKRFHLPGIRQGYGLTETTSAILITPEGDDKPGAVGKVVPFFEAKVVDLDTGKTLGVNQRGELCVRGPMIMSGYVNNPEATNALIDKDGWLHSGDIAYWDEDEHFFIVDRLKSLIKYKGYQVAPAELESILLQHPNIFDAGVAGLPDDDAGELPAAVVVLEHGKTMTEKEIVDYVASQVTTAKKLRGGVVFVDEVPKGLTGKLDARKIREILIKAKKGGKIAVTRLKGSGATNFSLLKQAGDVEENPGPRSGTGSSGQVQLVESGGGLVQPGGSLRLSCAASGFIFSSYQMAWVRQAPGKGLEWVADINTGGWNTYYADSVKGRFTISRDNAKNTLYLEMNSLKPEDTAVYYCAADRWMVAKIVGGDLDFDSWGQGTQVTVSSGGGGSGGGGSGGGGSGGGGSQVQLVESGGGLVQPGGSLRLSCAASGFIFSSYQMAWVRQAPGKGLEWVADINTGGWNTYYADSVKGRFTISRDNAKNTLYLEMNSLKPEDTAVYYCAADRWMVAKIVGGDLDFDSWGQGTQVTVSSGAPGSGPPSFSEGSGGSRTPEKGFSDREPTRPPRPILQRQDDIVQEKRLSRGISHASSSIVSLARSHVSSNGGGGGSNEHPLEMPICAFQLPDLTVYNEDFRSFIERDLIEQSMLVALEQAGRLNWWVSVDPTSQRLLPLATTGDGNCLLHAASLGMWGFHDRDLMLRKALYALMEKGVEKEALKRRWRWQQTQQNKESGLVYTEDEWQKEWNELIKLASSEPRMHLGTNGANCGGVESSEEPVYESLEEFHVFVLAHVLRRPIVVVADTMLRDSGGEAFAPIPFGGIYLPLEVPASQCHRSPLVLAYDQAHFSALVSMEQKENTKEQAVIPLTDSEYKLLPLHFAVDPGKGWEWGKDDSDNVRLASVILSLEVKLHLLHSYMNVKWIPLSSDAQAPLAQ | – | ≥ 2 |
| FLX00156 (VHH, Camelid VHH from a phage library; also called anti-SynGAP VHH FLX00156; VHH) VHH: QVQLVESGGGLVQPGGSLRLACAASGFTFGTHAMHWVRWAPGKGFEWVSTISSGGGGTRYADSVKGRFTISRDNAKNTVYLQMDNLKPEDTAVYYCNSPSNIANDNWGQGTQVTVSS | binds | – |
| FLX00153 (VHH, Camelid VHH from a phage library; also called anti-SynGAP VHH FLX00153; VHH) VHH: QLQLVESGGGLVQPGESLRLSCAASGFTFSNYRMYWVRMAPGKGLEWVSDIDRSGTYTYYADSVKGRFAISRDNAKNTVYLQMNSLKPEDTAVYYCAADRRLIVDLTPEVYDHWGQGTQVTVSS | binds | – |
| FLX00154 (VHH, Camelid VHH from a phage library; also called anti-SynGAP VHH FLX00154; VHH) VHH: QVQLVESGGGLVQPGGSLRLSCAASGFIFSSYQMAWVRQAPGKGLEWVADINTGGWNTYYADSVKGRFTISRDNAKNTLYLEMNSLKPEDTAVYYCAADRWMVAKIVGGDLDFDSWGQGTQVTVSS | binds | – |
| FLX00152 (VHH, Camelid VHH from a phage library; also called anti-SynGAP VHH FLX00152; VHH) VHH: QVQLVESGGGLVQPGGSLRLSCAASGFSFSNFPMMWVRQAPGKGREWVADINQDGRNTYYADSVKGRFTISRDNAKTTVYLQMNNLNPEDTAVYYCQAIRTTTHFDSWGQGTQVTVSS | binds | – |
